In data set [1] the target is T1, UP1 (RRM1-RRM2 fragment of hnRNP A1) (UniProt P09651 1-196). The data set is described as follows: NMR.
Data set [2] deals with T1, UP1 (RRM1-RRM2 fragment of hnRNP A1). The data set is described as follows: ITC. In general terms: In ITC the heat of successive injections is recorded.
For data set [3] the target is unchanged. Kind of data set: NMR. The source holds these as a separate data set.
Data set [4] has the same target. The data set is described as follows: ITC. This is another data set of the same source.
The target is the same in data set [5]. The data set is described as follows: NMR. The source holds these as a separate data set.

T1 sequence (P09651 1-196): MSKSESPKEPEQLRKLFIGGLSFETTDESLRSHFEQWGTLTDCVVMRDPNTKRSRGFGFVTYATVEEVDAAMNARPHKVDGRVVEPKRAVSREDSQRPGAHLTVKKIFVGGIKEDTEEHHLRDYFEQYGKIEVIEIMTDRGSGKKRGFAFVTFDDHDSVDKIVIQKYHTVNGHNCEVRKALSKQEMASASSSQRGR

B1: EV2 (structured_RNA)
RNA: GCACCACAGGAUCAAUAGCAGGUGUGGCACACCAGUCAUACCUUGAUCC
The Kd is a measure of binding affinity in units of concentration. A high value points to weaker binding. For B1, the figures for the Kd in data set [1] and in data set [2] were 11.1 ± 5.1 µM and 5.1 ± 1.9 µM, respectively.

B2: SMN1 exon 7 ESE1 hairpin (structured_RNA)
RNA: GCACCACACGGGUUUCAGACAAAAUCCG
With B2, the Kd in data set [3] came out at 101 ± 29 µM; in data set [4], 51.3 ± 2.5 µM.

B3: RNA0 (ssRNA)
RNA: GCACCACACG
On to B3, for which binding in data set [3] was put at a Kd of 978 ± 162 µM.

B4: SMN2 exon 7 ESE1 hairpin (structured_RNA)
RNA: GCACCACACGGGUUUUAGACAAAAUCCG
On to B4, for which the Kd amounted to 100 ± 20 µM in data set [5] and 47.4 ± 19.7 µM in data set [4].

The values are drawn from publication PMC6837886.
